# Source: patent US20070191277
# T1: rPAI-1Δ23 (recombinant truncated porcine plasminogen activator inhibitor-1 isoform; RCL deleted, heparin-binding domain deleted)
# T1 chain: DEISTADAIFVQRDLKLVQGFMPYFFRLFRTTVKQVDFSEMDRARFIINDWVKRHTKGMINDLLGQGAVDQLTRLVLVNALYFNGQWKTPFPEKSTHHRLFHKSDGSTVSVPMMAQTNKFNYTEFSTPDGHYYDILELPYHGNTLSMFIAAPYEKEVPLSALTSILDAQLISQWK
# T2: rPAI-123 (recombinant truncated porcine plasminogen activator inhibitor-1 isoform; RCL deleted, partial deletion of the heparin-binding domain)
# T2 chain: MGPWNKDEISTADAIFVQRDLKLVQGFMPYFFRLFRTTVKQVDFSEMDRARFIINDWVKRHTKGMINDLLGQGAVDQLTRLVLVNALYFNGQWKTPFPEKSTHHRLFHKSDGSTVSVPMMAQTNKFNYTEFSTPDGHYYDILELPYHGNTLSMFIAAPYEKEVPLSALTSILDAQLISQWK
# B1: plasminogen (protein)
# chain: EPLDDYVNTQGASLFSVTKKQLGAGSIEECAAKCEEDEEFTCRAFQYHSKEQQCVIMAENRKSSIIIRMRDVVLFEKKVYLSECKTGNGKNYRGTMSKTKNGITCQKWSSTSPHRPRFSPATHPSEGLEENYCRNPDNDPQGPWCYTTDPEKRYDYCDILECEEECMHCSGENYDGKISKTMSGLECQAWDSQSPHAHGYIPSKFPNKNLKKNYCRNPDRELRPWCFTTDPNKRWELCDIPRCTTPPPSSGPTYQCLKGTGENYRGNVAVTVSGHTCQHWSAQTPHTHNRTPENFPCKNLDENYCRNPDGKRAPWCHTTNSQVRWEYCKIPSCDSSPVSTEQLAPTAPPELTPVVQDCYHGDGQSYRGTSSTTTTGKKCQSWSSMTPHRHQKTPENYPNAGLTMNYCRNPDADKGPWCFTTDPSVRWEYCNLKKCSGTEASVVAPPPVVLLPDVETPSEEDCMFGNGKGYRGKRATTVTGTPCQDWAAQEPHRHSIFTPETNPRAGLEKNYCRNPDGDVGGPWCYTTNPRKLYDYCDVPQCAAPSFDCGKPQVEPKKCPGRVVGGCVAHPHSWPWQVSLRTRFGMHFCGGTLISPEWVLTAAHCLEKSPRPSSYKVILGAHQEVNLEPHVQEIEVSRLFLEPTRKDIALLKLSSPAVITDKVIPACLPSPNYVVADRTECFITGWGETQGTFGAGLLKEAQLPVIENKVCNRYEFLNGRVQSTELCAGHLAGGTDSCQGDSGGPLVCFEKDKYILQGVTSWGLGCARPNKPGVYVRVSRFVTWIEGVMRNN
# What was measured:
# [1] = molecular target: T1, rPAI-1Δ23 (recombinant truncated …)
# [2] = molecular target: T2, rPAI-123 (recombinant truncated porcine …)
protein,measurement,setting,value
B1,plasminogen cleavage (immunoblot probed for mini-plasminogen),[1],"the rPAI-1Δ23 protein did not cleave plasminogen, even when increasing concentrations of the recombinant protein were added"
same,plasminogen cleavage (immunoblot probed for mini-plasminogen),[2],the rPAI-123 recombinant protein cleaves plasminogen
